This sample holds only a part of the variants without activity.
How the values were obtained:
[1] = system: biotinyl-Phe-oxazolone; test: self-aminoacylation, catalytic enhancement (BFO) (fold over background); higher = more active; k-Seq, kA / k0A0; sequences stand for … in GGGAAUGGAUCCACAUCUACGAAUUC…UUCACUGCAGACUUGACGAAGCUG
Summary of the method: (§1)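 Mutagenized RNA pools with a 21-nt variable region (0.43 μM) reacted with each biotinyl-aminoacyl-oxazolone at 2–1250 μM. Reactions ran in 50 μL HEPES/NaCl/KCl/MgCl2/CaCl2 buffer with 5% acetonitrile, pH 6.9–7.0, for 90 minutes at room temperature. Streptavidin-captured RNA was quantified by triplicate qPCR and Illumina sequencing, and per-sequence fraction reacted was fit to a pseudo-first-order model with 1000 bootstraps. Catalytic enhancement is median kA divided by the uncatalyzed rate, the low-activity peak of a bimodal Gaussian fit.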

[2] = system: biotinyl-Ile-oxazolone; test: self-aminoacylation, catalytic enhancement (BIO) (fold over background); higher = more active; k-Seq, kA / k0A0; sequences stand for … in GGGAAUGGAUCCACAUCUACGAAUUC…UUCACUGCAGACUUGACGAAGCUG
Summary of the method: as §1

[3] = system: biotinyl-Met-oxazolone; test: self-aminoacylation, catalytic enhancement (BMO) (fold over background); higher = more active; k-Seq, kA / k0A0; sequences stand for … in GGGAAUGGAUCCACAUCUACGAAUUC…UUCACUGCAGACUUGACGAAGCUG
Summary of the method: as §1

[4] = system: biotinyl-Val-oxazolone; test: self-aminoacylation, catalytic enhancement (BVO) (fold over background); higher = more active; k-Seq, kA / k0A0; sequences stand for … in GGGAAUGGAUCCACAUCUACGAAUUC…UUCACUGCAGACUUGACGAAGCUG
Summary of the method: as §1

[5] = system: biotinyl-Leu-oxazolone; test: self-aminoacylation, catalytic enhancement (BLO) (fold over background); higher = more active; k-Seq, kA / k0A0; sequences stand for … in GGGAAUGGAUCCACAUCUACGAAUUC…UUCACUGCAGACUUGACGAAGCUG
Summary of the method: as §1

[6] = system: biotinyl-Trp-oxazolone; test: self-aminoacylation, catalytic enhancement (BWO) (fold over background); higher = more active; k-Seq, kA / k0A0; sequences stand for … in GGGAAUGGAUCCACAUCUACGAAUUC…UUCACUGCAGACUUGACGAAGCUG
Summary of the method: as §1

Sequence | self-aminoacylation [1] | self-aminoacylation [2] | self-aminoacylation [3] | self-aminoacylation [4] | self-aminoacylation [5] | self-aminoacylation [6]
AUUACCCUGGUCAUCGAUUGG [Fam2.1 aminoacylation ribozyme variant] | 0.798 | 0.665 | 0.715 | 0.856 | 0.713 | 1.3
CCAGACUUGAAGCAAUCGGUC [Fam1B.1 aminoacylation ribozyme variant] | 0.942 | 1.07 | 1.08 | 1.12 | 1.16 | 1.07
AAGUUUGCUAAGAGUCGCAAC [Fam3.1 aminoacylation ribozyme variant] | 0.845 | 1.21 | 1.07 | 1.19 | 1.27 | 1.28
AUCCAGCUAGGUCAUCGGGUG [Fam2.2 aminoacylation ribozyme variant] | 47.5 | 4.76 | 5.63 | 6.15 | 6.74 | 7.36
CCAUACUUCAAGCAAUCUGUC [Fam1B.1 aminoacylation ribozyme variant] | 0.503 | 0.536 | 0.439 | 0.555 | 0.384 | 0.251
AUACACAUAGGUCAUCGGGUG [Fam2.2 aminoacylation ribozyme variant] | 40.3 | 3.69 | 5.61 | 3.83 | 6.21 | 6.66
AUUCACCUAGGUCUUGGGGUG [Fam2.2 aminoacylation ribozyme variant] | 77.3 | 5.73 | 11.2 | 6.44 | 13.8 | 9.73
AUUCACCUACGUAAUCGGGUG [Fam2.2 aminoacylation ribozyme variant] | 45.9 | 3.09 | 6.45 | 3.4 | 9.03 | 5.66
CCACACUUCCACCAAUCGGUC [Fam1B.1 aminoacylation ribozyme variant] | 0.478 | 0.908 | 0.51 | 0.962 | 0.643 | 0.847
AAGUUUGCUACUAGUCGCACG [Fam3.1 aminoacylation ribozyme variant] | 1.28 | 0.967 | 1.02 | 0.846 | 1.1 | 1.73
AGGUUUGCGAAUAGUCGCAAG [Fam3.1 aminoacylation ribozyme variant] | 7.75 | 1.63 | 2.24 | 1.75 | 1.82 | 3.06
AUUACCCCGGACAUCGAGUGA [Fam2.1 aminoacylation ribozyme variant] | 19.6 | 2.38 | 4.74 | 2.48 | 4.04 | 5.47
CCACACUUCAAACAAUCGGAC [Fam1B.1 aminoacylation ribozyme variant] | 3.27 | 1.01 | 0.88 | 1 | 0.951 | 1.94
CUACUUCAAAAAAUCGGUCUA [Fam1A.1 aminoacylation ribozyme variant] | 4.37 | 0.842 | 0.725 | 0.697 | 0.79 | 2.39
AUUACCCUGGUCAUGGCGUGA [Fam2.1 aminoacylation ribozyme variant] | 125 | 7 | 16.2 | 10.3 | 17.4 | 19.4
AUUAACCAGGUCAUCGAGUGA [Fam2.1 aminoacylation ribozyme variant] | 22.2 | 3.17 | 5.17 | 2.8 | 5.32 | 6.86
CUACACUUCAAGCAAGCGGUC [Fam1B.1 aminoacylation ribozyme variant] | 0.583 | 0.719 | 0.62 | 0.637 | 0.772 | 0.541
CUACUUCAAACGAUCGGUAUG [Fam1A.1 aminoacylation ribozyme variant] | 0.588 | 0.544 | 0.585 | 0.675 | 0.591 | 0.727
CUACACUCCAAGCAAUCGGUC [Fam1B.1 aminoacylation ribozyme variant] | 2.74 | 0.949 | 0.76 | 0.934 | 0.747 | 1.22
AUUGACCUAGGUCAUUGGGUG [Fam2.2 aminoacylation ribozyme variant] | 14.7 | 2.82 | 2.54 | 2.33 | 2.94 | 3.59
CCACACUUUAAGCCAUCGGUC [Fam1B.1 aminoacylation ribozyme variant] | 0.541 | 0.964 | 0.743 | 0.879 | 0.755 | 0.783
CUACUUCACACAAUCGGUGUG [Fam1A.1 aminoacylation ribozyme variant] | 0.67 | 1.07 | 1.65 | 1.25 | 1.22 | 0.513
AACUUUGCUAAUAGUCUCAAG [Fam3.1 aminoacylation ribozyme variant] | 3.43 | 1.47 | 1.39 | 1.42 | 1.54 | 1.5
CCCCACUUCAAGCAACCGGUC [Fam1B.1 aminoacylation ribozyme variant] | 3.09 | 1.99 | 1.82 | 2.15 | 2.05 | 2.18
AUUACCCUGGUCAUCGACAGA [Fam2.1 aminoacylation ribozyme variant] | 0.705 | 1.04 | 0.716 | 0.774 | 0.738 | 0.676
GUUCACCUAGGUCGUCGGGUG [Fam2.2 aminoacylation ribozyme variant] | 11 | 1.67 | 2.44 | 2.1 | 2.04 | 2.08

— the supplement of paper PMC9233669
